Test [1] addresses GhV F I268F/Q287P ectodomain (Ghanaian virus). Description: negative-stain EM.
Test [2] addresses GhV F I268F/Q287P/S196C/A215C ectodomain (Ghanaian virus). The test can be described thus: negative-stain EM.

Here are results for 2 substances from paper PMC11032465.

In test [1], “GhV F I268F/Q287P ectodomain (domain or fragment)” displayed a stoichiometry N of 3.

Consider “GhV F I268F/Q287P/S196C/A215C ectodomain (domain or fragment)”, for which the stoichiometry N in test [2] was 3.
